From patent publication US20210238260A1 (published 2021)

T1: Factor VIIIa (FVIIIa), from recombinant FVIII (Kogenate FS; Bayer healthcare) activated with alpha-thrombin (UniProt P00451 20-2351)
T1 sequence (looked up): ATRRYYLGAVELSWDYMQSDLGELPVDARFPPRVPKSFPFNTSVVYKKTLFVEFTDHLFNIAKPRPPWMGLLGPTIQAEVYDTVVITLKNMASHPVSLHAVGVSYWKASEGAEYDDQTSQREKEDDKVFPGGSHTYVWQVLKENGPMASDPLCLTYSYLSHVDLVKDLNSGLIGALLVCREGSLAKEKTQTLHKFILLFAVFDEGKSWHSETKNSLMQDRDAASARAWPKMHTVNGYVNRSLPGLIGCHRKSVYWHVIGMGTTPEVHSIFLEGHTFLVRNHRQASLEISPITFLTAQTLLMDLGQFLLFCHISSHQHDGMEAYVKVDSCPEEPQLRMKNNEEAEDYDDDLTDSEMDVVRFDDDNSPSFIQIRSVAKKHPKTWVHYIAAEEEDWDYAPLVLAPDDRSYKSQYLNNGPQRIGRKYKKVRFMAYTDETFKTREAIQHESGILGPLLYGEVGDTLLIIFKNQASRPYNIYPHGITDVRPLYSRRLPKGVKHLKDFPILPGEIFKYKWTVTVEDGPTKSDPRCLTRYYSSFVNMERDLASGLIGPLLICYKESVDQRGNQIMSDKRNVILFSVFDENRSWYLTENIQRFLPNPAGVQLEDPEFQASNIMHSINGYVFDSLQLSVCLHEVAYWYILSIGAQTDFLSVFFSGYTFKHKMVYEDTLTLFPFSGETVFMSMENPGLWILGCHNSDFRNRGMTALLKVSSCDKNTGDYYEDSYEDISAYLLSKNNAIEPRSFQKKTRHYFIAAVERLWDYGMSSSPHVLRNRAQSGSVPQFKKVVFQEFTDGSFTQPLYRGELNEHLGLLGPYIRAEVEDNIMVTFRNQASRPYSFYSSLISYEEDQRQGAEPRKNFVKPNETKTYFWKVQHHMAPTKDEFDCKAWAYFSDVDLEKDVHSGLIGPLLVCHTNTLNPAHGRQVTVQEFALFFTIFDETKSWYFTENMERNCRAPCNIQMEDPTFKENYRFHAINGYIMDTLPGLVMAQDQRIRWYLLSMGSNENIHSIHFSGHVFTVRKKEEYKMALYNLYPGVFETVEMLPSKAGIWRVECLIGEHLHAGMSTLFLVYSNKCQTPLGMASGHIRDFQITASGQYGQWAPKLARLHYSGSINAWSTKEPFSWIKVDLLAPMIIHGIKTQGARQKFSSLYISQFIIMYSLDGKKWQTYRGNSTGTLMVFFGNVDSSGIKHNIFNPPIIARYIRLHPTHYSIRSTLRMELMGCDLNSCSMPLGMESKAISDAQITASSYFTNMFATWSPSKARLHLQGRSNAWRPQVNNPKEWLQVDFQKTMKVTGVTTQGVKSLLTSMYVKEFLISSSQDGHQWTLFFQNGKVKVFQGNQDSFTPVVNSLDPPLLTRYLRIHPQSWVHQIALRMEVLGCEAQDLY

T2: Factor VIIIa (recombinant FVIII, Kogenate FS, activated with alpha-thrombin) (UniProt P00451 20-2351)
T2 construct: also called FVIIIa
T2 sequence (looked up): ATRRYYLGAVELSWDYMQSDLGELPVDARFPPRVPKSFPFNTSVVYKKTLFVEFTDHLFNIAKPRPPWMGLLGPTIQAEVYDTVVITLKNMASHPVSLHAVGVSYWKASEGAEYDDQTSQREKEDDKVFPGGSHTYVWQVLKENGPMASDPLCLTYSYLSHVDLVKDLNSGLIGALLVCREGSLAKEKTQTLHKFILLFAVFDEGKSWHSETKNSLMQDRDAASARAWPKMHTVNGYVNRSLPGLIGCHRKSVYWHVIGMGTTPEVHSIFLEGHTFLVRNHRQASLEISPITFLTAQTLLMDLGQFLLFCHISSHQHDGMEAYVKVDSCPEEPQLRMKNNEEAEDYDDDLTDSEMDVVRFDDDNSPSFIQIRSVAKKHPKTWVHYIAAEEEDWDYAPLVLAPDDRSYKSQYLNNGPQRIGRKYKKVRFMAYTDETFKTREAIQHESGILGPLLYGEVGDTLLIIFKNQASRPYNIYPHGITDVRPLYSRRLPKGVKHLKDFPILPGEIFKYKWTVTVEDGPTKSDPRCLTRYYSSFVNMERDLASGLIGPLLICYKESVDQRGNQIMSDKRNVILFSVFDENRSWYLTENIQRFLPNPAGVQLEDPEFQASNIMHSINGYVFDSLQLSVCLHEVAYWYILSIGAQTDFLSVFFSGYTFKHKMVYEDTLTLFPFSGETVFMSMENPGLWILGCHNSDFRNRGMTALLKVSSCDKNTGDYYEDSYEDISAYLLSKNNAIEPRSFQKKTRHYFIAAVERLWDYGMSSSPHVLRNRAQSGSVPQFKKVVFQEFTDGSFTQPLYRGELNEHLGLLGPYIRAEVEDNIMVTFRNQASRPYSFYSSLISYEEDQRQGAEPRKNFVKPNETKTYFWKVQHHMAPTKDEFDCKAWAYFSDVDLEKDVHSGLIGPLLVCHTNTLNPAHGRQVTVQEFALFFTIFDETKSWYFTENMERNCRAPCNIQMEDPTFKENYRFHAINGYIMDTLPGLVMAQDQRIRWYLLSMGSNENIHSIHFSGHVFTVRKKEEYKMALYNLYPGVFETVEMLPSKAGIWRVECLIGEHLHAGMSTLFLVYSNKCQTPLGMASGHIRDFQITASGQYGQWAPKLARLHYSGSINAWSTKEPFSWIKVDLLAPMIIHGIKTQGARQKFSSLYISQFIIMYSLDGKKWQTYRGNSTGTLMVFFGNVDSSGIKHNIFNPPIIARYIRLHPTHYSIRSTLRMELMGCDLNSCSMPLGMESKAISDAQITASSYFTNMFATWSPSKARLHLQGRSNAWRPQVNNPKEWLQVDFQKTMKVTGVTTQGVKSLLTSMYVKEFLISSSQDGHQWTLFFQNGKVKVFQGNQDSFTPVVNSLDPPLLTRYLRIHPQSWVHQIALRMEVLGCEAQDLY


How the values were obtained:
[1] = molecular target: T1, Factor VIIIa (FVIIIa), from recombinant …; test: apparent functional KD (KD-app): FX activation rate vs FVIIIa titration, fluorogenic Xase assay with PC/PS vesicles and Ca2+
From the text: The activity of alpha-thrombin was then quenched by the addition of a highly specific thrombin inhibitor, hirudin, prior to initiating the assay.

[2] = molecular target: T2, Factor VIIIa (recombinant FVIII, …); test: functional cofactor affinity KD-app: fluorogenic FX activation (Xase) assay, FVIIIa titrated, PC/PS vesicles, saturating FX
Method: Reactions were monitored in a SpectraMax fluorescence plate reader for 30 min at 37° C. A standard curve of free AMC served as the conversion factor for RFU to μM in the subsequent data analysis calculations using a dose range that covered 0 μM to 100 μM AMC.

Binder | Kd [1] [nM] | Kd [2] [nM]
FIXa variant D104N/K106S/K247N/N249S/N260S (enzyme) light: YNSGKLEEFVQGNLERECMEEKCSFEEAREVFENTERTTEFWKQYVDGDQCESNPCLNGGSCKDDINSYECWCPFGFEGKNCELDVTCNIKNGRCEQFCKNSANNSVVCSCTEGYRLAENQKSCEPAVPFPCGRVSVSQTSKLTR heavy: VVGGEDAKPGQFPWQVVLNGKVDAFCGGSIVNEKWIVTAAHCVETGVKITVVAGEHNIEETEHTEQNRSVIRIIPHHNYSAAINKYNHDIALLELDEPLVLNSYVTPICIADKEYTNIFLKFGSGYVSGWGRVFHKGRSALVLQYLRVPLVDRATCLRSTKFTIYNNMFCAGFHEGGRDSCQGDSGGPHVTEVEGTSFLTGIISWGEECAMKGKYGIYTKVSRYVNWIKEKTKLT | 330 | 
FIXa-R318Y/R338E/T343R/E410N (enzyme, also called R150Y/R170E/T175R/E240N (chymotrypsin numbering)) chain 1: YNSGKLEEFVQGNLERECMEEKCSFEEAREVFENTERTTEFWKQYVDGDQCESNPCLNGGSCKDDINSYECWCPFGFEGKNCELDVTCNIKNGRCEQFCKNSADNKVVCSCTEGYRLAENQKSCEPAVPFPCGRVSVSQTSKLTR chain 2: VVGGEDAKPGQFPWQVVLNGKVDAFCGGSIVNEKWIVTAAHCVETGVKITVVAGEHNIEETEHTEQKRNVIRIIPHHNYNAAINKYNHDIALLELDEPLVLNSYVTPICIADKEYTNIFLKFGSGYVSGWGRVFHKGYSALVLQYLRVPLVDRATCLESTKFRIYNNMFCAGFHEGGRDSCQGDSGGPHVTEVEGTSFLTGIISWGEECAMKGKYGIYTKVSRYVNWIKNKTKLT |  | 6.1
FIXa-R338E/T343R/R403E/E410N (enzyme, also called R170E/T175R/R233E/E240N (chymotrypsin numbering)) chain 1: YNSGKLEEFVQGNLERECMEEKCSFEEAREVFENTERTTEFWKQYVDGDQCESNPCLNGGSCKDDINSYECWCPFGFEGKNCELDVTCNIKNGRCEQFCKNSADNKVVCSCTEGYRLAENQKSCEPAVPFPCGRVSVSQTSKLTR chain 2: VVGGEDAKPGQFPWQVVLNGKVDAFCGGSIVNEKWIVTAAHCVETGVKITVVAGEHNIEETEHTEQKRNVIRIIPHHNYNAAINKYNHDIALLELDEPLVLNSYVTPICIADKEYTNIFLKFGSGYVSGWGRVFHKGRSALVLQYLRVPLVDRATCLESTKFRIYNNMFCAGFHEGGRDSCQGDSGGPHVTEVEGTSFLTGIISWGEECAMKGKYGIYTKVSEYVNWIKNKTKLT |  | 29.4
FIXa-R338E/T343R/E410N (enzyme, also called R170E/T175R/E240N (chymotrypsin numbering)) chain 1: YNSGKLEEFVQGNLERECMEEKCSFEEAREVFENTERTTEFWKQYVDGDQCESNPCLNGGSCKDDINSYECWCPFGFEGKNCELDVTCNIKNGRCEQFCKNSADNKVVCSCTEGYRLAENQKSCEPAVPFPCGRVSVSQTSKLTR chain 2: VVGGEDAKPGQFPWQVVLNGKVDAFCGGSIVNEKWIVTAAHCVETGVKITVVAGEHNIEETEHTEQKRNVIRIIPHHNYNAAINKYNHDIALLELDEPLVLNSYVTPICIADKEYTNIFLKFGSGYVSGWGRVFHKGRSALVLQYLRVPLVDRATCLESTKFRIYNNMFCAGFHEGGRDSCQGDSGGPHVTEVEGTSFLTGIISWGEECAMKGKYGIYTKVSRYVNWIKNKTKLT |  | 7.5
FIXa-R338E/T343R/R403E (enzyme, also called R170E/T175R/R233E (chymotrypsin numbering)) chain 1: YNSGKLEEFVQGNLERECMEEKCSFEEAREVFENTERTTEFWKQYVDGDQCESNPCLNGGSCKDDINSYECWCPFGFEGKNCELDVTCNIKNGRCEQFCKNSADNKVVCSCTEGYRLAENQKSCEPAVPFPCGRVSVSQTSKLTR chain 2: VVGGEDAKPGQFPWQVVLNGKVDAFCGGSIVNEKWIVTAAHCVETGVKITVVAGEHNIEETEHTEQKRNVIRIIPHHNYNAAINKYNHDIALLELDEPLVLNSYVTPICIADKEYTNIFLKFGSGYVSGWGRVFHKGRSALVLQYLRVPLVDRATCLESTKFRIYNNMFCAGFHEGGRDSCQGDSGGPHVTEVEGTSFLTGIISWGEECAMKGKYGIYTKVSEYVNWIKEKTKLT |  | 55
